Measurements from article doi:10.1101/2019.12.17.868638.

Target: Rl-SRDI565 sulfoquinovosidase, K375A/K376A variant (RlSQase*) (Rhizobium leguminosarum bv. trifolii SRDI565)
Test: SEC-MALS

stoichiometry N: 2
Substance: Rl-SRDI565 sulfoquinovosidase, K375A/K376A variant (RlSQase*) (enzyme)
